This is an account of results in patent US20200377555A1 (Janssen / Centocor, published 2020).

For test [1], the target named is T1, UFV160665 (influenza A H1N1 A/California/07/09). Kind of test: ELISA, polypeptide coated, antibody titrated; average of 3 independent assays. (In an ELISA, binding on a coated surface is turned into a signal by an enzyme label.)
For test [2], the target named is T2, UFV160664 (influenza A H1N1 A/California/07/09). Described as above.
For test [3], the target named is T3, UFV160656 (influenza A H1N1 A/California/07/09). The description is as above.
The target in test [4] is T4, UFV160655 (influenza A H1N1 A/Brisbane/59/07). The test is described as above.
For test [5], the target named is T1, UFV160665.
For test [6], the target named is UFV5369 (influenza A H1N1 A/California/07/09).
The target in test [7] is T2, UFV160664.
For test [8], the target named is T3, UFV160656.
For test [9], the target named is T4, UFV160655.

B1: CR6261 (antibody, V domains shown)
VH: EVQLVESGAEVKKPGSSVKVSCKASGGPFRSYAISWVRQAPGQGPEWMGGIIPIFGTTKYAPKFQGRVTITADDFAGTVYMELSSLRSEDTAMYYCAKHMGYQVRETMDVWGKGTTVTVSS
VL: QSVLTQPPSVSAAPGQKVTISCSGSSSNIGNDYVSWYQQLPGTAPKLLIYDNNKRPSGIPDRFSGSKSGTSATLGITGLQTGDEANYYCATWDRRPTAYVVFGGGTKLTVLG
By EC50 is commonly meant the concentration giving half of the maximal effect. Broadly, the Kd is the concentration at which binding is half-saturated. Lower therefore signals a tighter complex. Regarding B1, the EC50 in test [1] turned out to be 0.425 nM; in test [2], 0.395 nM; in test [3] it was 0.432 nM; in [4], 0.396 nM. For the same molecule, the Kd in [5] turned out to be 0.56 nM; in test [6], 0.97 nM; in test [7], 0.57 nM; in test [8], 0.6 nM; in test [9] it was 0.55 nM.
